# Laboratory results: patent publication US20150037348A1 (AbbVie / Abbott, published 2015)
# B1: J695 (antibody, human IgG1, V domains shown)
# VH: QVQLVESGGGVVQPGRSLRLSCAASGFTFSSYGMHWVRQAPGKGLEWVAFIRYDGSNKYYADSVKGRFTISRDNSKNTLYLQMNSLRAEDTAVYYCKTHGSHDNWGQGTMVTVSS
# VL: QSVLTQPPSVSGAPGQRVTISCSGSRSNIGSNTVKWYQQLPGTAPKLLIYYNDQRPSGVPDRFSGSKSGTSASLAITGLQAEDEADYYCQSYDRYTHPALLFGTGTKVTVLG
# notes: human IgG1 with lambda light chain
# B2: J695 (antibody, V domains shown)
# VH: QVQLVESGGGVVQPGRSLRLSCAASGFTFSSYGMHWVRQAPGKGLEWVAFIRYDGSNKYYADSVKGRFTISRDNSKNTLYLQMNSLRAEDTAVYYCKTHGSHDNWGQGTMVTVSS
# VL: QSVLTQPPSVSGAPGQRVTISCSGSRSNIGSNTVKWYQQLPGTAPKLLIYYNDQRPSGVPDRFSGSKSGTSASLAITGLQAEDEADYYCQSYDRYTHPALLFGTGTKVTVLG
# notes: Human IgG1 with lambda light chain (detected with anti-human lambda); Made in CHO or COS cells
# Legend:
# recombinant rhesus IL-12 = target: T1, recombinant rhesus IL-12 (rhesus monkey, UniProt P48091 23-219; P48095 23-328); experiment: cell-based or functional assay
# T1 sequence (looked up) 1: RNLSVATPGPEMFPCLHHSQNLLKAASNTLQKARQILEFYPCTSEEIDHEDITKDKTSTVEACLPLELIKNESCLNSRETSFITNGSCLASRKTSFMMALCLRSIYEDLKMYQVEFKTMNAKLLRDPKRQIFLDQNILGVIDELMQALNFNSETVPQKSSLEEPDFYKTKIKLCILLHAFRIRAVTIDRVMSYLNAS
# T1 sequence (looked up) 2: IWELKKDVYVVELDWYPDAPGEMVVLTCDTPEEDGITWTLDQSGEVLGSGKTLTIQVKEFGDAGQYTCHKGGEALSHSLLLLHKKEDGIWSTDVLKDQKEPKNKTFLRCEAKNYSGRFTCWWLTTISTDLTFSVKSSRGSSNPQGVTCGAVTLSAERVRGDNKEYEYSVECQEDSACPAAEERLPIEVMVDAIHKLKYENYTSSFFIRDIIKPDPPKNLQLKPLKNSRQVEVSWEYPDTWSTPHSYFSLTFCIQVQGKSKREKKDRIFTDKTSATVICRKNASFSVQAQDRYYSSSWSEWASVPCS
# human IL-1α = target: T2, human IL-1α (human, UniProt P01583 113-271); experiment: competition ELISA: soluble cytokine against J695 (100 ng/ml) binding to immobilized human IL-12
# T2 sequence (looked up): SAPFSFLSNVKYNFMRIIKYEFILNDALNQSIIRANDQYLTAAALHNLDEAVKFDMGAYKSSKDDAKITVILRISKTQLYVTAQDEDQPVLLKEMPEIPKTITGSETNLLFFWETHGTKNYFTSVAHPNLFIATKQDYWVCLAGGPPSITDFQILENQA
# Method: (§1) The plates were washed 4 times and incubated for 1 h at room temperature with 100 μl mouse anti-human lambda-HRP (1:500 in PBS-T/BSA, Southern Biotech. Ass. Inc., Birmingham, Ala.). The plates were washed 4 times and developed with ABTS (Kirkegaard & Perry Lab, Gaithersburg, Md.) for 20-30 minutes in the dark. The OD₄₅₀ nm was read using a microplate reader (Molecular Devices, Menlo Park, Calif.).
# human IL-1β = human IL-1β (human, UniProt P01584 117-269); experiment: as above
# Method: as §1
# human IL-2 = human IL-2 (human, UniProt P60568 21-153); experiment: as above
# Method: as §1
# human IL-4 = target: T3, human IL-4 (human, UniProt P05112 25-153); experiment: as above
# T3 sequence (looked up): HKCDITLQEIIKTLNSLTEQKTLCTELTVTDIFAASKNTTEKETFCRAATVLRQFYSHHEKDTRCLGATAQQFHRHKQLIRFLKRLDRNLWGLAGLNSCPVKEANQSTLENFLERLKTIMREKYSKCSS
# Method: as §1
# human IL-17 = human IL-17 (human, UniProt Q16552 20-155, limits assumed); experiment: as above
# Method: as §1
# human TGF-β1 = human TGF-β1 (human, UniProt P01137 279-390); experiment: as above
# Method: as §1
# human IL-8 = human IL-8 (human, UniProt P10145 28-99, limits assumed); experiment: as above
# Method: as §1
# human IGF-II = human IGF-II (human, UniProt P01344 25-91); experiment: as above
# Method: as §1
# human lymphotoxin = target: T4, human lymphotoxin (human, UniProt P01374 35-205, limits assumed); experiment: as above
# T4 sequence (looked up): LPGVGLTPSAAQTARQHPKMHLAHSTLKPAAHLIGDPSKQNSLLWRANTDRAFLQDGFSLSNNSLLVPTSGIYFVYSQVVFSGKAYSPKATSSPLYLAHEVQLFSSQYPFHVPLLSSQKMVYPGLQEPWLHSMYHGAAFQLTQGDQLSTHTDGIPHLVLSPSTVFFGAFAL
# Method: as §1
# human IL-6 = human IL-6 (human, UniProt P05231 30-212); experiment: as above
# Method: as §1
# [1] = target: T5, human soluble IL-6 receptor (human, UniProt P08887 20-358); experiment: as above
# T5 construct: Soluble form
# T5 sequence (looked up): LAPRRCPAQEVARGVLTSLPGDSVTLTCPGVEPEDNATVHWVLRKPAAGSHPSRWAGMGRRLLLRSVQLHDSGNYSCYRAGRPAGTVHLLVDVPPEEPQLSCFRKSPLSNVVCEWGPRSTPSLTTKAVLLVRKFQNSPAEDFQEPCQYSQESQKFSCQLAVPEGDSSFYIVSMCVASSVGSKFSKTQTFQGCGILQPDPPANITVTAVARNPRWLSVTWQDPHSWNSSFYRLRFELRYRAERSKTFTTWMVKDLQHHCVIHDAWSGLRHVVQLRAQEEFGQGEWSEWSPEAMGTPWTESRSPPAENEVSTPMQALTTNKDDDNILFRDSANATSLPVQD
# Method: as §1
# human M-CSF = target: T6, human M-CSF (human, UniProt P09603 33-190, limits assumed); experiment: as above
# T6 sequence (looked up): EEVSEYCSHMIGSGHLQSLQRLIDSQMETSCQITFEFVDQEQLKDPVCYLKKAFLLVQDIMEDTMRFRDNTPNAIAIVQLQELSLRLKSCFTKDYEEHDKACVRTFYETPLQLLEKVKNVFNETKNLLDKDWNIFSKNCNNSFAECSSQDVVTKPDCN
# Method: as §1
Binder,"IC50 (M), bioassay, Rhesus IL-12 Purified (recombinant rhesus IL-12)",binding result (human IL-1α),binding result (human IL-1β),binding result (human IL-2),binding result (human IL-4),binding result (human IL-17),binding result (human TGF-β1),binding result (human IL-8),binding result (human IGF-II),binding result (human lymphotoxin),binding result (human IL-6),binding result [1],binding result (human M-CSF)
B1,1e-11 M,,,,,,,,,,,,
B2,,no binding (tested: 2 nM),no binding (tested: 2 nM),no binding (tested: 2 nM),no binding (tested: 2 nM),no binding (tested: 2 nM),no binding (tested: 2 nM),no binding (tested: 2 nM),no binding (tested: 2 nM),no binding (tested: 2 nM),no binding (tested: 2 nM),no binding (tested: 2 nM),no binding (tested: 2 nM)
